These are literature values, as cited in paper PMC9238359.

What all share (assay): ITC
Data set [1] has as its target STX4 N-terminal peptide (UniProt Q12846).
In data set [2] the target is STX4 soluble (lacks TMD) (UniProt Q12846).
Data set [3] concerns the target STX4 soluble lacking N-terminal peptide (UniProt Q12846).

As to Munc18c (from UniProt O00186), the dissociation constant Kd (usually the equilibrium constant for the complex coming apart) in data set [1] is 1500 nM; in data set [2], 12 nM; in data set [3] it was 735 nM.
